Assay results: the supplement of paper PMC9112550, “Optimization of the antimicrobial peptide Bac7 by deep mutational scanning” (BMC Biology, 2022)

Tested on: Escherichia coli TOP10
Experiment: shrunken log2 fold change of peptide-encoding DNA abundance (4.5 h post-induction vs induction); higher = less antimicrobial activity (less host growth inhibition)
Details: time post-induction: 4.5 h; library: site-saturation at positions 5, 18, 19, 20
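Also: peptides expressed intracellularly from a pBAD plasmid library in pooled LB shake-flask culture, induced with 0.3% L-arabinose, DNA abundance read by NGS, three biological replicates, DESeq2 with apeglm shrinkage.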

| Sequence | shrunken log2 fold change |
| --- | --- |
| RRIRSRPPRLPRPRPRPPLQPRP | 0.504 |
| RRIRSRPPRLPRPRPRPPMAPRP | 0.169 |
| RRIRSRPPRLPRPRPRPPNQPRP | 0.134 |
| RRIRSRPPRLPRPRPRPPPKPRP | 0.708 |
| RRIRSRPPRLPRPRPRPPRMPRP | 0.274 |
| RRIRSRPPRLPRPRPRPPRNPRP | 0.415 |
| RRIRSRPPRLPRPRPRPPSQPRP | 0.235 |
| RRIRSRPPRLPRPRPRPPSTPRP | 0.141 |
| RRIRSRPPRLPRPRPRPPTPPRP | 0.63 |
| RRIRSRPPRLPRPRPRPPVHPRP | 0.0185 |
| RRIRSRPPRLPRPRPRPPWLPRP | 0.462 |
| RRIRSRPPRLPRPRPRPPWRPRP | 0.614 |
| RRIRSRPPRLPRPRPRPPYFPRP | -0.0285 |
| RRIRSRPPRLPRPRPRPPYHPRP | -0.584 |
| RRIRSRPPRLPRPRPRPPYRPRP | -0.119 |
| RRIRSRPPRLPRPRPRPQCWPRP | 0.24 |
| RRIRSRPPRLPRPRPRPQEAPRP | -0.0452 |
| RRIRSRPPRLPRPRPRPQEFPRP | -0.00884 |
| RRIRSRPPRLPRPRPRPQELPRP | -0.107 |
| RRIRSRPPRLPRPRPRPQEYPRP | -0.257 |
| RRIRSRPPRLPRPRPRPQFKPRP | -0.239 |
| RRIRSRPPRLPRPRPRPQITPRP | -0.457 |
| RRIRSRPPRLPRPRPRPQMGPRP | -0.046 |
| RRIRSRPPRLPRPRPRPQMQPRP | 0.00783 |
| RRIRSRPPRLPRPRPRPQRCPRP | -0.0342 |

| Sequence | shrunken log2 fold change |
| --- | --- |
| RRIRSRPPRLPRPRPRPQVRPRP | 0.0563 |
| RRIRSRPPRLPRPRPRPQVYPRP | -0.276 |
| RRIRSRPPRLPRPRPRPRAGPRP | 1.46 |
| RRIRSRPPRLPRPRPRPRAKPRP | 0.244 |
| RRIRSRPPRLPRPRPRPRAWPRP | 0.0718 |
| RRIRSRPPRLPRPRPRPRCFPRP | 0.165 |
| RRIRSRPPRLPRPRPRPRDLPRP | 0.254 |
| RRIRSRPPRLPRPRPRPRDMPRP | 0.446 |
| RRIRSRPPRLPRPRPRPRDSPRP | -0.158 |
| RRIRSRPPRLPRPRPRPRDVPRP | -0.0918 |
| RRIRSRPPRLPRPRPRPRFKPRP | 0.0925 |
| RRIRSRPPRLPRPRPRPRFQPRP | 0.233 |
| RRIRSRPPRLPRPRPRPRFTPRP | -0.115 |
| RRIRSRPPRLPRPRPRPRGIPRP | -0.33 |
| RRIRSRPPRLPRPRPRPRHCPRP | 0.101 |
| RRIRSRPPRLPRPRPRPRKQPRP | 0.248 |
| RRIRSRPPRLPRPRPRPRLAPRP | 0.45 |
| RRIRSRPPRLPRPRPRPRQSPRP | 0.113 |
| RRIRSRPPRLPRPRPRPRRNPRP | 0.128 |
| RRIRSRPPRLPRPRPRPRTKPRP | 0.407 |
| RRIRSRPPRLPRPRPRPRTTPRP | 0.318 |
| RRIRSRPPRLPRPRPRPRTWPRP | 0.0747 |
| RRIRSRPPRLPRPRPRPRVRPRP | 0.217 |
| RRIRSRPPRLPRPRPRPRVSPRP | -0.0241 |
| RRIRSRPPRLPRPRPRPRWTPRP | 0.0635 |

| Sequence | shrunken log2 fold change |
| --- | --- |
| RRIRSRPPRLPRPRPRPRWYPRP | -0.402 |
| RRIRSRPPRLPRPRPRPRYEPRP | -0.12 |
| RRIRSRPPRLPRPRPRPRYKPRP | -0.154 |
| RRIRSRPPRLPRPRPRPSAMPRP | 0.292 |
| RRIRSRPPRLPRPRPRPSARPRP | 0.299 |
| RRIRSRPPRLPRPRPRPSASPRP | 0.0953 |
| RRIRSRPPRLPRPRPRPSATPRP | 0.168 |
| RRIRSRPPRLPRPRPRPSCGPRP | -0.0515 |
| RRIRSRPPRLPRPRPRPSHAPRP | -0.449 |
| RRIRSRPPRLPRPRPRPSHVPRP | -0.3 |
| RRIRSRPPRLPRPRPRPSIGPRP | 0.347 |
| RRIRSRPPRLPRPRPRPSKYPRP | -0.345 |
| RRIRSRPPRLPRPRPRPSLCPRP | -0.0295 |
| RRIRSRPPRLPRPRPRPSMPPRP | -0.706 |
| RRIRSRPPRLPRPRPRPSMYPRP | -0.286 |
| RRIRSRPPRLPRPRPRPSNEPRP | -0.476 |
| RRIRSRPPRLPRPRPRPSNSPRP | -0.145 |
| RRIRSRPPRLPRPRPRPSNVPRP | -0.47 |
| RRIRSRPPRLPRPRPRPSNYPRP | -0.869 |
| RRIRSRPPRLPRPRPRPSPCPRP | -0.04 |
| RRIRSRPPRLPRPRPRPSPEPRP | 0.0709 |
| RRIRSRPPRLPRPRPRPSPHPRP | -0.194 |
| RRIRSRPPRLPRPRPRPSQMPRP | -0.161 |
| RRIRSRPPRLPRPRPRPSRYPRP | -0.148 |
| RRIRSRPPRLPRPRPRPSSCPRP | -0.271 |
